Assay results as given in US20260201008A1, “SECRETIN-DERIVED GLP1R SELECTIVE AGONISTS” (GUBRA A/S, priority 2023, published 2026).
Numbered stars: 1 amine (or outer) side, 2 acyl side, 3 side chain; on linkers, the order of the positions; unused ones are H or OH. Square brackets hold non-standard residues; d marks the D form. Side chains are listed from the residue outwards. Ends that are not written are not given here. * marks the point of attachment. C20 diacid = O=C(O)CCCCCCCCCCCCCCCCCCC(=O)*; γGlu = O=C(O)[C@H](CCC(=O)[*:2])N[*:1]; AEEA = NCCOCCOCC(=O)O; Aib = CC(C)(N)C(=O)O

How the values were obtained:
[1] = target: human GLP-1 receptor (hGLP1R) (human, UniProt P43220 24-463); test: cell-based or functional assay
[2] = target: human secretin receptor (hSCTR) (human, UniProt P47872 23-440); test: cell-based or functional assay
Sequence of human secretin receptor (hSCTR) (P47872 23-440): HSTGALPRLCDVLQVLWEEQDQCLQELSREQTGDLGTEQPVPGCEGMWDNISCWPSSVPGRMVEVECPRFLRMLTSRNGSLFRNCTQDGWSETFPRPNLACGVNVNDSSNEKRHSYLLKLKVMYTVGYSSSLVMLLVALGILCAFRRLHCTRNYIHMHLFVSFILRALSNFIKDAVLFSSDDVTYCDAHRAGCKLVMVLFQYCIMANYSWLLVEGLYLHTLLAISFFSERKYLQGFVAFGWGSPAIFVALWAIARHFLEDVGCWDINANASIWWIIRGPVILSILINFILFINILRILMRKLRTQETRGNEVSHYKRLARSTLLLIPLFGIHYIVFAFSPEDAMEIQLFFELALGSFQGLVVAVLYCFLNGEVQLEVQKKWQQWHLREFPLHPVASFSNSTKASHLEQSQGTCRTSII

B1: SEQ ID NO: 106 (peptide)
peptide: H[Aib]EGTFTSD[Aib]SYLLEGAALQRFIQWLV-NH2
modifications: N-terminus assumed
SMILES: CC[C@H](C)[C@H](NC(=O)[C@H](Cc1ccccc1)NC(=O)[C@H](CCCNC(=N)N)NC(=O)[C@H](CCC(N)=O)NC(=O)[C@H](CC(C)C)NC(=O)[C@H](C)NC(=O)[C@H](C)NC(=O)CNC(=O)[C@H](CCC(=O)O)NC(=O)[C@H](CC(C)C)NC(=O)[C@H](CC(C)C)NC(=O)[C@H](Cc1ccc(O)cc1)NC(=O)[C@H](CO)NC(=O)C(C)(C)NC(=O)[C@H](CC(=O)O)NC(=O)[C@H](CO)NC(=O)[C@@H](NC(=O)[C@H](Cc1ccccc1)NC(=O)[C@@H](NC(=O)CNC(=O)[C@H](CCC(=O)O)NC(=O)C(C)(C)NC(=O)[C@@H](N)Cc1c[nH]cn1)[C@@H](C)O)[C@@H](C)O)C(=O)N[C@@H](CCC(N)=O)C(=O)N[C@@H](Cc1c[nH]c2ccccc12)C(=O)N[C@@H](CC(C)C)C(=O)N[C@H](C(N)=O)C(C)C
[1]
  pEC50 hGLPR1: 10.8 -log M
[2]
  pEC50 hSCTR: 5.8 -log M

B2: SEQ ID NO: 112 (peptide)
peptide: H[Aib]EGTFTSDISYLLEGAALQRFIQWLV-NH2
modifications: N-terminus assumed
SMILES: CC[C@H](C)[C@H](NC(=O)[C@H](Cc1ccccc1)NC(=O)[C@H](CCCNC(=N)N)NC(=O)[C@H](CCC(N)=O)NC(=O)[C@H](CC(C)C)NC(=O)[C@H](C)NC(=O)[C@H](C)NC(=O)CNC(=O)[C@H](CCC(=O)O)NC(=O)[C@H](CC(C)C)NC(=O)[C@H](CC(C)C)NC(=O)[C@H](Cc1ccc(O)cc1)NC(=O)[C@H](CO)NC(=O)[C@@H](NC(=O)[C@H](CC(=O)O)NC(=O)[C@H](CO)NC(=O)[C@@H](NC(=O)[C@H](Cc1ccccc1)NC(=O)[C@@H](NC(=O)CNC(=O)[C@H](CCC(=O)O)NC(=O)C(C)(C)NC(=O)[C@@H](N)Cc1c[nH]cn1)[C@@H](C)O)[C@@H](C)O)[C@@H](C)CC)C(=O)N[C@@H](CCC(N)=O)C(=O)N[C@@H](Cc1c[nH]c2ccccc12)C(=O)N[C@@H](CC(C)C)C(=O)N[C@H](C(N)=O)C(C)C
[1]
  pEC50 hGLPR1: 10.8 -log M
[2]
  pEC50 hSCTR: 5.6 -log M

B3: SEQ ID NO: 108 (peptide)
peptide: H[Aib]EGTFTSD[Aib]SWLLEGAALQRFIQWLV-NH2
modifications: N-terminus assumed
SMILES: CC[C@H](C)[C@H](NC(=O)[C@H](Cc1ccccc1)NC(=O)[C@H](CCCNC(=N)N)NC(=O)[C@H](CCC(N)=O)NC(=O)[C@H](CC(C)C)NC(=O)[C@H](C)NC(=O)[C@H](C)NC(=O)CNC(=O)[C@H](CCC(=O)O)NC(=O)[C@H](CC(C)C)NC(=O)[C@H](CC(C)C)NC(=O)[C@H](Cc1c[nH]c2ccccc12)NC(=O)[C@H](CO)NC(=O)C(C)(C)NC(=O)[C@H](CC(=O)O)NC(=O)[C@H](CO)NC(=O)[C@@H](NC(=O)[C@H](Cc1ccccc1)NC(=O)[C@@H](NC(=O)CNC(=O)[C@H](CCC(=O)O)NC(=O)C(C)(C)NC(=O)[C@@H](N)Cc1c[nH]cn1)[C@@H](C)O)[C@@H](C)O)C(=O)N[C@@H](CCC(N)=O)C(=O)N[C@@H](Cc1c[nH]c2ccccc12)C(=O)N[C@@H](CC(C)C)C(=O)N[C@H](C(N)=O)C(C)C
[1]
  pEC50 hGLPR1: 10.1 -log M
[2]
  pEC50 hSCTR: 5.9 -log M

B4: SEQ ID NO: 109 (peptide)
peptide: H[Aib]EGTFTSD[Aib]SELLEGAALQRFIQWLV-NH2
modifications: N-terminus assumed
SMILES: CC[C@H](C)[C@H](NC(=O)[C@H](Cc1ccccc1)NC(=O)[C@H](CCCNC(=N)N)NC(=O)[C@H](CCC(N)=O)NC(=O)[C@H](CC(C)C)NC(=O)[C@H](C)NC(=O)[C@H](C)NC(=O)CNC(=O)[C@H](CCC(=O)O)NC(=O)[C@H](CC(C)C)NC(=O)[C@H](CC(C)C)NC(=O)[C@H](CCC(=O)O)NC(=O)[C@H](CO)NC(=O)C(C)(C)NC(=O)[C@H](CC(=O)O)NC(=O)[C@H](CO)NC(=O)[C@@H](NC(=O)[C@H](Cc1ccccc1)NC(=O)[C@@H](NC(=O)CNC(=O)[C@H](CCC(=O)O)NC(=O)C(C)(C)NC(=O)[C@@H](N)Cc1c[nH]cn1)[C@@H](C)O)[C@@H](C)O)C(=O)N[C@@H](CCC(N)=O)C(=O)N[C@@H](Cc1c[nH]c2ccccc12)C(=O)N[C@@H](CC(C)C)C(=O)N[C@H](C(N)=O)C(C)C
[1]
  pEC50 hGLPR1: 10.1 -log M
[2]
  pEC50 hSCTR: 5.5 -log M

B5: SEQ ID NO: 104 (peptide)
peptide: H[Aib]EGTFTSD[Aib]SRLLEGAALQRFIQWLV-NH2
modifications: N-terminus assumed
SMILES: CC[C@H](C)[C@H](NC(=O)[C@H](Cc1ccccc1)NC(=O)[C@H](CCCNC(=N)N)NC(=O)[C@H](CCC(N)=O)NC(=O)[C@H](CC(C)C)NC(=O)[C@H](C)NC(=O)[C@H](C)NC(=O)CNC(=O)[C@H](CCC(=O)O)NC(=O)[C@H](CC(C)C)NC(=O)[C@H](CC(C)C)NC(=O)[C@H](CCCNC(=N)N)NC(=O)[C@H](CO)NC(=O)C(C)(C)NC(=O)[C@H](CC(=O)O)NC(=O)[C@H](CO)NC(=O)[C@@H](NC(=O)[C@H](Cc1ccccc1)NC(=O)[C@@H](NC(=O)CNC(=O)[C@H](CCC(=O)O)NC(=O)C(C)(C)NC(=O)[C@@H](N)Cc1c[nH]cn1)[C@@H](C)O)[C@@H](C)O)C(=O)N[C@@H](CCC(N)=O)C(=O)N[C@@H](Cc1c[nH]c2ccccc12)C(=O)N[C@@H](CC(C)C)C(=O)N[C@H](C(N)=O)C(C)C
[1]
  pEC50 hGLPR1: 9.9 -log M
[2]
  pEC50 hSCTR: 6.5 -log M

B6: SEQ ID NO: 105 (peptide)
peptide: H[Aib]EGTFTSD[Aib]SGLLEGAALQRFIQWLV-NH2
modifications: N-terminus assumed
SMILES: CC[C@H](C)[C@H](NC(=O)[C@H](Cc1ccccc1)NC(=O)[C@H](CCCNC(=N)N)NC(=O)[C@H](CCC(N)=O)NC(=O)[C@H](CC(C)C)NC(=O)[C@H](C)NC(=O)[C@H](C)NC(=O)CNC(=O)[C@H](CCC(=O)O)NC(=O)[C@H](CC(C)C)NC(=O)[C@H](CC(C)C)NC(=O)CNC(=O)[C@H](CO)NC(=O)C(C)(C)NC(=O)[C@H](CC(=O)O)NC(=O)[C@H](CO)NC(=O)[C@@H](NC(=O)[C@H](Cc1ccccc1)NC(=O)[C@@H](NC(=O)CNC(=O)[C@H](CCC(=O)O)NC(=O)C(C)(C)NC(=O)[C@@H](N)Cc1c[nH]cn1)[C@@H](C)O)[C@@H](C)O)C(=O)N[C@@H](CCC(N)=O)C(=O)N[C@@H](Cc1c[nH]c2ccccc12)C(=O)N[C@@H](CC(C)C)C(=O)N[C@H](C(N)=O)C(C)C
[1]
  pEC50 hGLPR1: 10 -log M
[2]
  pEC50 hSCTR: 5.8 -log M

B7: SEQ ID NO: 107 (peptide)
peptide: H[Aib]EGTFTSD[Aib]S[Aib]LLEGAALQRFIQWLV-NH2
modifications: N-terminus assumed
SMILES: CC[C@H](C)[C@H](NC(=O)[C@H](Cc1ccccc1)NC(=O)[C@H](CCCNC(=N)N)NC(=O)[C@H](CCC(N)=O)NC(=O)[C@H](CC(C)C)NC(=O)[C@H](C)NC(=O)[C@H](C)NC(=O)CNC(=O)[C@H](CCC(=O)O)NC(=O)[C@H](CC(C)C)NC(=O)[C@H](CC(C)C)NC(=O)C(C)(C)NC(=O)[C@H](CO)NC(=O)C(C)(C)NC(=O)[C@H](CC(=O)O)NC(=O)[C@H](CO)NC(=O)[C@@H](NC(=O)[C@H](Cc1ccccc1)NC(=O)[C@@H](NC(=O)CNC(=O)[C@H](CCC(=O)O)NC(=O)C(C)(C)NC(=O)[C@@H](N)Cc1c[nH]cn1)[C@@H](C)O)[C@@H](C)O)C(=O)N[C@@H](CCC(N)=O)C(=O)N[C@@H](Cc1c[nH]c2ccccc12)C(=O)N[C@@H](CC(C)C)C(=O)N[C@H](C(N)=O)C(C)C
[1]
  pEC50 hGLPR1: 9.8 -log M
[2]
  pEC50 hSCTR: 6 -log M

B8: SEQ ID NO: 110 (peptide)
peptide: H[Aib]EGTFTSD[Aib]SVLLEGAALQRFIQWLV-NH2
modifications: N-terminus assumed
SMILES: CC[C@H](C)[C@H](NC(=O)[C@H](Cc1ccccc1)NC(=O)[C@H](CCCNC(=N)N)NC(=O)[C@H](CCC(N)=O)NC(=O)[C@H](CC(C)C)NC(=O)[C@H](C)NC(=O)[C@H](C)NC(=O)CNC(=O)[C@H](CCC(=O)O)NC(=O)[C@H](CC(C)C)NC(=O)[C@H](CC(C)C)NC(=O)[C@@H](NC(=O)[C@H](CO)NC(=O)C(C)(C)NC(=O)[C@H](CC(=O)O)NC(=O)[C@H](CO)NC(=O)[C@@H](NC(=O)[C@H](Cc1ccccc1)NC(=O)[C@@H](NC(=O)CNC(=O)[C@H](CCC(=O)O)NC(=O)C(C)(C)NC(=O)[C@@H](N)Cc1c[nH]cn1)[C@@H](C)O)[C@@H](C)O)C(C)C)C(=O)N[C@@H](CCC(N)=O)C(=O)N[C@@H](Cc1c[nH]c2ccccc12)C(=O)N[C@@H](CC(C)C)C(=O)N[C@H](C(N)=O)C(C)C
[1]
  pEC50 hGLPR1: 9.7 -log M
[2]
  pEC50 hSCTR: 5.7 -log M

## H[Aib]EGTFTSDVSTLK([AEEA-AEEA-γGlu-C20 diacid])ELAAAQRFLEHLV-NH2 (also: K14 lipidated with C20DA[γE][OEG][OEG]- or C18DA[γE][OEG][OEG]-) [SEQ ID NO: 11]
[1]
  pEC50 hGLPR1: 10.3 -log M
[2]
  pEC50 hSCTR: 6.2 -log M

B9: SEQ ID NO: 111 (peptide)
peptide: H[Aib]EGTFTSD[Aib]SFLLEGAALQRFIQWLV-NH2
modifications: N-terminus assumed
SMILES: CC[C@H](C)[C@H](NC(=O)[C@H](Cc1ccccc1)NC(=O)[C@H](CCCNC(=N)N)NC(=O)[C@H](CCC(N)=O)NC(=O)[C@H](CC(C)C)NC(=O)[C@H](C)NC(=O)[C@H](C)NC(=O)CNC(=O)[C@H](CCC(=O)O)NC(=O)[C@H](CC(C)C)NC(=O)[C@H](CC(C)C)NC(=O)[C@H](Cc1ccccc1)NC(=O)[C@H](CO)NC(=O)C(C)(C)NC(=O)[C@H](CC(=O)O)NC(=O)[C@H](CO)NC(=O)[C@@H](NC(=O)[C@H](Cc1ccccc1)NC(=O)[C@@H](NC(=O)CNC(=O)[C@H](CCC(=O)O)NC(=O)C(C)(C)NC(=O)[C@@H](N)Cc1c[nH]cn1)[C@@H](C)O)[C@@H](C)O)C(=O)N[C@@H](CCC(N)=O)C(=O)N[C@@H](Cc1c[nH]c2ccccc12)C(=O)N[C@@H](CC(C)C)C(=O)N[C@H](C(N)=O)C(C)C
[1]
  pEC50 hGLPR1: 10.5 -log M
[2]
  pEC50 hSCTR: 5.7 -log M
